Data reported in patent publication US20140271457A1 (AbbVie / Abbott, published 2014).
Numbering of substitutions follows the chain as printed.

B1: DVD3091 (bispecific antibody, human IgG1, kappa)
heavy: not shown
light: DVVMTQSPLSLPVTLGQPASISCRSSQSLVHSHGNTYLHWYQQRPGQSPRLLIYTVSNRFSGVPDRFSGSGSGTDFTLKISRVEAEDVGVYYCSQSTHVPYTFGGGTKVEIKRTVAAPSVFIFPPDIQMTQSPSSLSASVGDRVTITCRASQLVSSAVAWYQQKPGKAPKLLIYWASARHTGVPSRFSGSGSGTDFTLTISSLQPEDFATYYCQQHYKTPFTFGQGTKLEIKRTVAAPSVFIFPPSDEQLKSGTASVVCLLNNFYPREAKVQWKVDNALQSGNSQESVTEQDSKDSTYSLSSTLTLSKADYEKHKVYACEVTHQGLSSPVTKSFNRGEC
B2: DVD3101 (bispecific antibody, human IgG1, kappa)
heavy: not shown
light: B1 light with R149K, A178T, R179L, K218R
B3: DVD3089 (bispecific antibody, human IgG1, kappa)
heavy: not shown
light: DVVMTQSPLSLPVTLGQPASISCRSSQSLVHSHGNTYLHWYQQRPGQSPRLLIYTVSNRFSGVPDRFSGSGSGTDFTLKISRVEAEDVGVYYCSQSTHVPYTFGGGTKVEIKRTVAAPDIQMTQSPSSLSASVGDRVTITCRASQLVSSAVAWYQQKPGKAPKLLIYWASARHTGVPSRFSGSGSGTDFTLTISSLQPEDFATYYCQQHYKTPFTFGQGTKLEIKRTVAAPSVFIFPPSDEQLKSGTASVVCLLNNFYPREAKVQWKVDNALQSGNSQESVTEQDSKDSTYSLSSTLTLSKADYEKHKVYACEVTHQGLSSPVTKSFNRGEC
B4: DVD3099 (bispecific antibody, human IgG1, kappa)
heavy: not shown
light: B3 light with R142K, A171T, R172L, K211R
B5: DVD3092 (bispecific antibody, human IgG1, kappa)
heavy: not shown
light: B3 light
B6: DVD3102 (bispecific antibody, human IgG1, kappa)
heavy: not shown
light: B3 light with R142K, A171T, R172L, K211R
B7: DVD3086 (bispecific antibody, human IgG1, kappa)
heavy: not shown
light: DIQMTQSPSSLSASVGDRVTITCRASQLVSSAVAWYQQKPGKAPKLLIYWASARHTGVPSRFSGSGSGTDFTLTISSLQPEDFATYYCQQHYKTPFTFGQGTKLEIKRTVAAPSVFIFPPDVVMTQSPLSLPVTLGQPASISCRSSQSLVHSHGNTYLHWYQQRPGQSPRLLIYTVSNRFSGVPDRFSGSGSGTDFTLKISRVEAEDVGVYYCSQSTHVPYTFGGGTKVEIKRTVAAPSVFIFPPSDEQLKSGTASVVCLLNNFYPREAKVQWKVDNALQSGNSQESVTEQDSKDSTYSLSSTLTLSKADYEKHKVYACEVTHQGLSSPVTKSFNRGEC
B8: DVD3096 (bispecific antibody)
heavy: not shown
light: B7 light with R24K, A53T, R54L, K93R
B9: DVD3088 (bispecific antibody, human IgG1, kappa)
heavy: not shown
light: DVVMTQSPLSLPVTLGQPASISCRSSQSLVHSHGNTYLHWYQQRPGQSPRLLIYTVSNRFSGVPDRFSGSGSGTDFTLKISRVEAEDVGVYYCSQSTHVPYTFGGGTKVEIKRGGSGGGGSGDIQMTQSPSSLSASVGDRVTITCRASQLVSSAVAWYQQKPGKAPKLLIYWASARHTGVPSRFSGSGSGTDFTLTISSLQPEDFATYYCQQHYKTPFTFGQGTKLEIKRTVAAPSVFIFPPSDEQLKSGTASVVCLLNNFYPREAKVQWKVDNALQSGNSQESVTEQDSKDSTYSLSSTLTLSKADYEKHKVYACEVTHQGLSSPVTKSFNRGEC
B10: DVD3098 (bispecific antibody, human IgG1, kappa)
heavy: not shown
light: B9 light with R146K, A175T, R176L, K215R
B11: DVD3104 (bispecific antibody, human IgG1, kappa)
heavy: not shown
light: DIQMTQSPSSLSASVGDRVTITCRASQDISQYLNWYQQKPGKAPKLLIYYTSRLQSGVPSRFSGSGSGTDFTLTISSLQPEDFATYFCQQGNTWPPTFGQGTKLEIKRTVAAPDIQMTQSPSSLSASVGDRVTITCRASQLVSSAVAWYQQKPGKAPKLLIYWASARHTGVPSRFSGSGSGTDFTLTISSLQPEDFATYYCQQHYKTPFTFGQGTKLEIKRTVAAPSVFIFPPSDEQLKSGTASVVCLLNNFYPREAKVQWKVDNALQSGNSQESVTEQDSKDSTYSLSSTLTLSKADYEKHKVYACEVTHQGLSSPVTKSFNRGEC
B12: DVD3083 (bispecific antibody, human IgG1, kappa)
heavy: not shown
light: DIQMTQSPSSLSASVGDRVTITCRASQLVSSAVAWYQQKPGKAPKLLIYWASARHTGVPSRFSGSGSGTDFTLTISSLQPEDFATYYCQQHYKTPFTFGQGTKLEIKRGGSGGGGSGDVVMTQSPLSLPVTLGQPASISCRSSQSLVHSHGNTYLHWYQQRPGQSPRLLIYTVSNRFSGVPDRFSGSGSGTDFTLKISRVEAEDVGVYYCSQSTHVPYTFGGGTKVEIKRTVAAPSVFIFPPSDEQLKSGTASVVCLLNNFYPREAKVQWKVDNALQSGNSQESVTEQDSKDSTYSLSSTLTLSKADYEKHKVYACEVTHQGLSSPVTKSFNRGEC
B13: DVD3093 (bispecific antibody)
heavy: not shown
light: B12 light with R24K, A53T, R54L, K93R
B14: DVD3084 (bispecific antibody, human IgG1, kappa)
heavy: not shown
light: DIQMTQSPSSLSASVGDRVTITCRASQLVSSAVAWYQQKPGKAPKLLIYWASARHTGVPSRFSGSGSGTDFTLTISSLQPEDFATYYCQQHYKTPFTFGQGTKLEIKRTVAAPDVVMTQSPLSLPVTLGQPASISCRSSQSLVHSHGNTYLHWYQQRPGQSPRLLIYTVSNRFSGVPDRFSGSGSGTDFTLKISRVEAEDVGVYYCSQSTHVPYTFGGGTKVEIKRTVAAPSVFIFPPSDEQLKSGTASVVCLLNNFYPREAKVQWKVDNALQSGNSQESVTEQDSKDSTYSLSSTLTLSKADYEKHKVYACEVTHQGLSSPVTKSFNRGEC
B15: DVD3087 (bispecific antibody, human IgG1, kappa)
heavy: not shown
light: B14 light
B16: DVD3097 (bispecific antibody)
heavy: not shown
light: B14 light with R24K, A53T, R54L, K93R
B17: DVD3094 (bispecific antibody)
heavy: not shown
light: B14 light with R24K, A53T, R54L, K93R
B18: DVD3103 (bispecific antibody, human IgG1, kappa)
heavy: not shown
light: DIQMTQSPSSLSASVGDRVTITCRASQDISQYLNWYQQKPGKAPKLLIYYTSRLQSGVPSRFSGSGSGTDFTLTISSLQPEDFATYFCQQGNTWPPTFGQGTKLEIKRGGSGGGGSGDIQMTQSPSSLSASVGDRVTITCRASQLVSSAVAWYQQKPGKAPKLLIYWASARHTGVPSRFSGSGSGTDFTLTISSLQPEDFATYYCQQHYKTPFTFGQGTKLEIKRTVAAPSVFIFPPSDEQLKSGTASVVCLLNNFYPREAKVQWKVDNALQSGNSQESVTEQDSKDSTYSLSSTLTLSKADYEKHKVYACEVTHQGLSSPVTKSFNRGEC

Molecular target: Recombinant Human IL-13 (human, UniProt P35225 35-146, limits assumed)
Experiment: cell-based or functional assay

Recombinant Human IL-13, sequence (P35225 35-146 limits assumed): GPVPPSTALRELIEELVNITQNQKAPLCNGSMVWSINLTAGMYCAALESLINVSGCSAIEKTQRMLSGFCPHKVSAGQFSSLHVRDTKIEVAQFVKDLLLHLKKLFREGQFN

Binder	IL-13 Neutralization Assay IC50
B1	0.056 nM
B2	0.037 nM
B3	0.074 nM
B4	0.014 nM
B5	0.06 nM
B6	0.025 nM
B7	0.12 nM
B8	0.064 nM
B9	0.103 nM
B10	0.059 nM
B11	1.05 nM
B12	0.098 nM
B13	0.067 nM
B14	0.587 nM
B15	0.082 nM
B16	0.072 nM
B17	0.444 nM
B18	0.042 nM
